Results published in patent US20240299546A1.

Columns and labels:
[1] = target: HLA-A1-TITIN pMHC (human); assay: SPR, biotinylated HLA-A1-TITIN on streptavidin chip, soluble TCR flowed
[2] = target: HLA-A1-MAGE-A3 pMHC (human); assay: SPR, biotinylated HLA-A1-MAGE-A3 on streptavidin chip, soluble TCR flowed

B1: A3A TCR (TCR, V domains shown)
V domain 1: KQEVTQIPAALSVPEGENLVLNCSFTDSAIYNLQWFRQDPGKGLTSLLLVRPYQREQTSGRLNASLDKSSGRSTLYIAASQPGDSATYLCAVRPGGAGSYQLTFGKGTKLSVIP
V domain 2: KAGVTQTPRYLIKTRGQQVTLSCSPISGHRSVSWYQQTPGQGLQFLFEYFSETQRNKGNFPGRFSGRQFSNSRSEMNVSTLELGDSALYLCASSPNMADEQYFGPGTRLTVTE
Kd [1]: 7.7 µM
Kd [2]: 1.24 µM
